The target in assay [1] is T1, anti-human Fc (Jackson ImmunoResearch, 109-006-008).
T1 construct: Coated on a control plate to capture the chimeric IgG1 antibodies through their human Fc; also called IgG
Kind of assay: ELISA, IgG titrated on coated anti-human Fc; fit printed as IC50.

The target of assay [2] is T1, anti-human Fc (Jackson ImmunoResearch, …). Described as above. This is another data set of the same source.
Assay [3] addresses T2, recombinant human twin strep-tagged ROR2 extracellular domain (human, UniProt Q01974 34-403).
T2 construct: extracellular domain; Made in HEK293T, Streptactin purified; also called Human ROR2-TwinStrep; human ROR2
Kind of assay: ELISA, IgG titrated on coated twin-strep human ROR2 ECD; fit printed as IC50.

Assay [4] has as its target T3, recombinant murine twin strep-tagged ROR2 extracellular domain (mouse, UniProt Q9Z138 34-403).
T3 construct: extracellular domain; Made in HEK293T, Streptactin purified; also called mouse ROR2; murine ROR2
The assay is described as follows: ELISA, IgG titrated on coated twin-strep mouse ROR2 ECD; fit printed as IC50.

Assay [5] concerns the target T2, recombinant human twin strep-tagged …. The assay is described as follows: ELISA, IgG titrated on coated twin-strep human ROR2 ECD; fit printed as IC50. The source holds these as a separate data set.
For assay [6], the target named is T4, recombinant cynomolgus twin strep-tagged ROR2 extracellular domain (cynomolgus monkey, UniProt A0A7N9D5U8 34-403).
T4 construct: extracellular domain; Made in HEK293T, Streptactin purified; also called cynomolgus ROR2; cynomolgus ROR2-TwinStrep
Kind of assay: ELISA, IgG titrated on coated twin-strep cynomolgus ROR2 ECD; fit printed as IC50.

In assay [7] the target is T2, recombinant human twin strep-tagged …. Kind of assay: SPR, Biacore T200, IgG captured by anti-human Fcγ, ROR2-TwinStrep as analyte, 1:1 Langmuir.
Assay [8] addresses T4, recombinant cynomolgus twin …. The assay is described as above.
Assay [9] concerns the target T5, full-length human ROR2 on cells (human, UniProt Q01974 34-943).
T5 construct: whole, on cells; the cells are named under assay; In the Western blot it is denatured; also called hROR2; cell surface human ROR2
Kind of assay: flow cytometry, T47D cells (endogenous hROR2), IgG 100 ng/100 µL, anti-human Fc APC.

Assay [10] has as its target T6, human CD20 on HEK293 cells (Retrogenix array) (human, UniProt P11836 1-297).
T6 construct: whole, on cells
T6 sequence (looked up): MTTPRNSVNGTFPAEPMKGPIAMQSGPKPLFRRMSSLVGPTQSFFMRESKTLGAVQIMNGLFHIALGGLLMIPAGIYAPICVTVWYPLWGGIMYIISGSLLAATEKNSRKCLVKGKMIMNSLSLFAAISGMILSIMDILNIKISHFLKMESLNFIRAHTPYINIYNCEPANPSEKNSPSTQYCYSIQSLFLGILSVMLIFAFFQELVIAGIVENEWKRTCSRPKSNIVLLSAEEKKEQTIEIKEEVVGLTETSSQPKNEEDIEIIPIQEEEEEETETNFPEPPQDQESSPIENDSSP
The assay is described as follows: Retrogenix cell microarray, identical slides of fixed HEK293 cells, AlexaFluor647 anti-human IgG Fc.

In assay [11] the target is T7, Ig.
T7 construct: transmembrane segment; also called HA-Ig
Kind of assay: flow cytometry, HEK 293F cells displaying the construct, IgG1 1 µg/mL, APC (binding) against PE (expression); on Vec cells Q2 1.86.

Assay [12] concerns the target T8, Fr (human).
T8 construct: isolated domain;transmembrane segment; also called HA-Fr
The description is as above.

The target in assay [13] is T9, Ki (human).
T9 construct: isolated domain;transmembrane segment; also called HA-Ki
The description is as above.

Assay [14] deals with T10, Ig+Fr (human).
T10 construct: two-domain fragment;transmembrane segment; also called HA-Ig+Fr
The assay is described as above.

In assay [15] the target is Fr+Ki (human). The assay is described as above.
Chain of Fr+Ki (human) (chain, as listed by the source): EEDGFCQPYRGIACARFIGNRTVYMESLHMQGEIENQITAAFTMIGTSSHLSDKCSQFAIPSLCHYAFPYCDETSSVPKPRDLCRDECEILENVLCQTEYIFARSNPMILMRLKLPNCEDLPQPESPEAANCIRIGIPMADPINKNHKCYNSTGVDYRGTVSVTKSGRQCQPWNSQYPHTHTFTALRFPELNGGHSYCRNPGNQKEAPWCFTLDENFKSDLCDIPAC
For assay [16], the target named is T11, hROR2-T245 extracellular domain displayed on HEK 293F cells (human, UniProt Q01974 55-394; P09619 513-561).
T11 construct: range 55-394;range 513-561; also called complete ECD
Described as above.

The target of assay [17] is T7, Ig. Kind of assay: flow cytometry, HEK 293F cells displaying the construct, IgG1 1 µg/mL, APC (binding) against PE (expression); on Vec cells Q2 6.53 and 73.5 in the PE- APC+ quadrant.
Assay [18] deals with T10, Ig+Fr. The description is as above.
Assay [19] concerns the target T11, hROR2-T245 extracellular domain …. The assay is described as above.

Read-outs that look alike come from different tables or passages of the source.

T3 sequence (Q9Z138 other isoform, or with tags, fused parts or gaps): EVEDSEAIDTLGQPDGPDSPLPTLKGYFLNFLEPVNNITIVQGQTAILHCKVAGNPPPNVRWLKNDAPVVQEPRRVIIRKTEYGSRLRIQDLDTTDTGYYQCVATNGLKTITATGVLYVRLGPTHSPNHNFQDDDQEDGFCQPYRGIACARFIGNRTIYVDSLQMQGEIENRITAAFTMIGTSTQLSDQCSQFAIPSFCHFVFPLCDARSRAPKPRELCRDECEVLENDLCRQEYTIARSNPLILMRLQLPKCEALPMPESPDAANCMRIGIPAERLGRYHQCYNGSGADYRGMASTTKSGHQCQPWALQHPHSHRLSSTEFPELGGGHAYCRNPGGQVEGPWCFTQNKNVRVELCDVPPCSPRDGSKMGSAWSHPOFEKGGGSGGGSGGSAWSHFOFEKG

B1: ERR2-302 (mAb004) (antibody, human IgG1, V domains shown)
VH: QKQLVESGGGLVKPGGSLTLTCTVSGFSLSSYAIGWVRQAPGNGLEWIGIINSYGSTYYASWAKSRSTITRNTNLNTVTLKMTSLTAADTATYFCARSPYGYVSAWGYHRLDLWGQGTLVTISS
VL: SYELTQLPSVSVSLGQTARITCGGASIGSKVVHWYQQKPGLAPGLLIYDDDERPSGVPDRFSGSNSGDTATLTISGAQAGDEAEYYCQLWDGSDVVFGGGTQLTVTG
notes: Full-length chimeric rabbit/human IgG1, human IgH-gamma1 and IgL-lambda constant regions; C-terminal tags HC: LPETG-Strep, LC: G5SLPETG-Strep
Take B1: the IC50 in assay [1] was found to be 0.0322 mg/L; in assay [2], 0.0134 mg/L; in assay [3] it was 0.102 mg/L; in assay [4], 0.0606 mg/L; in assay [5], 0.0055 mg/L; in assay [6], 0.0071 mg/L. Moreover, the Kd in assay [7] was 0.0524 µM; in [8], 0.0486 µM. For the same molecule, the koff was determined as 0.0056 s⁻¹ in [7] and 0.00527 s⁻¹ in [8]. Besides, the kon in assay [7] was determined as 107000 M⁻¹ s⁻¹; in [8] it was 108000 M⁻¹ s⁻¹.

B2: XBR2-TOP72 (IgG) (antibody, V domains shown)
VH: QEQLEESGGRLVTPGTPLTLTCTVSGIDLSSNAMSWVRQAPGKGLEYVGFINGGGGVHYASWARGRFTISKTSTTVDLKITSPTTEDTATYFCARAGTTYYTSFNLWGPGTLVTISS
VL: QFVLTQSPSASAALGSSAKLTCTLSSAHKTYTIAWYQQQQGEAPRLLMMLRTDGSYTKGTGVPDRFSGSSSGADRYLIISSVQADDAAGYYCGADYSGGYVFGGGTQLTVTG
notes: also called chimeric rabbit/human IgG1 XBR2-TOP72
In the case of B2, in [9], the binding result is “binds”.

B3: chimeric rabbit/human IgG1 XBR2-401 (antibody, V domains shown)
VH: QSVKESEGGLFKPTDTLTLTCTVSGFSLSSYGVTWVRQAPGSGLEWIGYINTAGNTYYASWAKSRSTITRNTNENTVTLKMTSLTAADTATYFCARDWTSLNIWGPGTLVTVSS
VL: DPMLTQTPSSTSTAVGDTVTIKCQASQSISSDLSWYQQKPGQRPKLLIYQASTLASGVPSRFKGSGYGTEYTLTISGVQREDAAIYYCLGGYADASYRTAFGGGTKLEIK
For the molecule B3, in [10], the binding result is reported as “no binding (tested: 20 µg/mL)”.

B4: IgG1 XBR2-416 (antibody, V domains shown)
VH: QEQLEESGGRLVTPGTPLTLTCTVSGFSLSSYWMSWVRQAPGKGLEWIGTITPGGNTDYATWAKARFTVSKTSTTVDLKITSPTTEDTATYFCARGIGGAADLWGPGTLVTISS
VL: AQVLTQTPSSTSAAVGGTVTIKCQASQSISSSDLSWYQQKPGQPPKLLIYATSYLASGVPSRFKGSGSGTEYTLTISGVQREDAATYYCLGGYPNTSYRSAFGGGTKVEIK
notes: also called chimeric rabbit/human IgG1 XBR2-416
Consider B4, for which the “cells in quadrant Q2 (PE+ APC+)” value was determined as 3.22% in [11]; 4.05% in assay [12]; 90.2% in assay [13]; 3.9% in [14]; 69.7% in assay [15]; 55.9% in assay [16].

B5: IgG1 XBR2-433 (antibody, V domains shown)
VH: QSVKESEGGLFKPTDTLTLTCTVSGFSLSTYGVSWVRQAPGNGLEWIGAIGSSGSANYASWAKDRSTITRNTNLNTVTLKMTSLTAADTATYFCARDGYYSSGWGPYFNIWGPGTLVTISS
VL: SFVLTQPASVQVNLGQTVSLTCTADTLSRSYASWYQQKPGQAPVLLIYRDTSRPSGVPDRFSGSSSGNTATLTISGAQAGDEADYYCATSGGSGSNPQYVFGGGTQLTVTG
In the case of B5, the “cells in quadrant Q2 (PE+ APC+)” value in assay [17] worked out at 67%; in [18], 50.7%; in [19], 90.6%.
